The assay has as its target His6-Rv3208 (FasR from M. tuberculosis) (M. tuberculosis H37Rv). Put plainly: SEC.

In turn, “His6-Rv3208 (FasR from M. tuberculosis) (natural protein)” displayed a stoichiometry N of 2.

For orientation: stoichiometry N means a count of units in the complex or per binding partner.

The record behind these values is PMC3752660.
